The target in one data set is T1, NTHL1 (UniProt P78549 1-304).
T1 sequence: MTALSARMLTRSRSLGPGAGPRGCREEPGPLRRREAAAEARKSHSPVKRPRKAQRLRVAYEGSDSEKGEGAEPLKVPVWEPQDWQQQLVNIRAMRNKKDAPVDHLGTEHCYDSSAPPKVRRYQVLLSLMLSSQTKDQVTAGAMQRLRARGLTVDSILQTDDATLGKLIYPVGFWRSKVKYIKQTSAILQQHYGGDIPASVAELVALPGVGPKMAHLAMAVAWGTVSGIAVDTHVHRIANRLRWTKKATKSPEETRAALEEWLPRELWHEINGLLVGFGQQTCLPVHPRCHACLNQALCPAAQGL
The data set is described as follows: EMSA. In general terms: Mobility shift assays separate free from complexed probe on a gel.

For the next data set, the target named is BCL11B213-560 (UniProt Q9C0K0 213-560). The data set is described as follows: EMSA.
Chain of BCL11B213-560 (Q9C0K0 213-560): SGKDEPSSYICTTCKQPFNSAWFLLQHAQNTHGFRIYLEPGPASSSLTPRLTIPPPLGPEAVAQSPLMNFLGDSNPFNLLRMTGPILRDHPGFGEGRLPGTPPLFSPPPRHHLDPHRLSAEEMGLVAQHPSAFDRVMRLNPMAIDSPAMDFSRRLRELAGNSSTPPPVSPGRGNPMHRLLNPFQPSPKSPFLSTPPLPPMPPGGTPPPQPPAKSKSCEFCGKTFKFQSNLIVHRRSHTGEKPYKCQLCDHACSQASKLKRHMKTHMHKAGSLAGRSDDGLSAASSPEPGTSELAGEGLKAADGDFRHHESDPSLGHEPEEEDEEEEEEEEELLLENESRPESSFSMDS

B1: thymine glycol 32-mer duplex (dsDNA)
DNA 1: CCGGTGCATGACACTGTTACCTATCCTCAGCG
DNA 2: CGCTGAGGATAGGTAACAGTGTCATGCACCGG
modifications: thymine glycol at position 18 of strand 1 (printed X, written T)
As to B1, the binding result in the data set with NTHL1 was “binds”; in the data set with BCL11B213-560, “no binding”.
